Experimental data taken from the nanobody polyreactivity screen of Harvey et al. (2022).

assay: yeast display, Sf9 membrane polyspecificity reagent, FACS + sequencing; frameworks hold sequencing errors
Outline: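 In a synthetic yeast display library (Saccharomyces cerevisiae BJ5465), nanobody expression was induced with galactose for 36–48 hours. FACS gates were set low and high (top ~1%) using anti-HA fluorescence for expression and streptavidin fluorescence for binding of the Sf9 membrane reagent. Each polyreactivity label is drawn from the gate of origin.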

| Sequence | polyreactivity (PSR sort gate) |
| --- | --- |
| QVQLVESGGGLVQAGGSLRLSCAASGRTFLAIGWYRQAPGKETELVATINGSDGNTYYADSVKGRFTISRDNAENTVYLQMNILKPEDTAVYYCAKRADHTYLPLRPGYPEYNYWRQGTQVTVSS | low polyreactivity |
| QVQLVESGGGLVQAGGSLRLSCAASGRTFLDNAMGWYRQAPGKERELVAAISYSGGSTYYADSVKGRFTISRDNAKNTVYLQMNSLKPEDTAVYYCAADPRQYDYYLLAYDYWGQGTQVTVSS | low polyreactivity |
| QVQLVESGGGLVQAGGSLRLSCAASGRTFLGYSMGWYRQAPAKERELVAAISGSCDRTYYADSVKGRFTISRDNAKHTVYLQMYSLKPEYTEVYYCNAVTVRYYASYYGRGMDYWGQGTQETVSS | high polyreactivity |
| QVQLVESGGGLVQAGGSLRLSCAASGRTFLGYTMGWYRQAPGKEREFVAAITFSGDSTYYADSVKGRFTISRDNAKNTVYLQMNSLKPEDTAVYYCAARKKYYTYLFYYWGQGTQVTVSS | high polyreactivity |
| QVQLVESGGGLVQAGGSLRLSCAASGRTFLHNAMGWYRQAPGKERELVAAITWSGGSTYYADSVKGRFTISRDNAKNTVYLQMNSLKPEDTAVYYCNARHRYYRYGYWGQGTQVTVSS | high polyreactivity |
| QVQLVESGGGLVQAGGSLRLSCAASGRTFLINAMGWYRQAPGKERELVADITGRGSSTYYADSVKGRFTISRDNAKNTVYLQMNSLKPEDTAVYYCNAVLRKITYDYWGQGTQVTVSS | high polyreactivity |
| QVQLVESGGGLVQAGGSLRLSCAASGRTFLIYAMGWYRQAPGKEREFVATITYSGGSTYYADSVKGRFTISRDNAKNTVYLQMNSLKPEDTAVYYCAAVRYGYRRSGPYNYSYDYWGQGTQVTVSS | high polyreactivity |
| QVQLVESGGGLVQAGGSLRLSCAASGRTFLIYAMGWYRQAPGKERELVAAITSGGRTKYADSVKGRFTISRDNAKYTVYLQMNSLKPEDTAVYYCAARTGVYRYSRKFDYWGQGTQVTVSS | high polyreactivity |
| QVQLVESGGGLVQAGGSLRLSCAASGRTFLLNAMGWSRQAPGKERELVAAITRSGVITYYADSVKGRFTISRDNAKNTVYLQMNSLKPEDTAVYYCAAQLRYSYLRPSYYYWGQGTQVTVSS | high polyreactivity |
| QVQLVESGGGLVQAGGSLRLSCAASGRTFLLYAMGWYRQAPGKERELVAAIRSSTVSTYYADSVKGRFTISRDNAKNTVYLQMNSLKPEDTAVYYCAASRPKYGPSGVHYNYWGQGTQVTVSS | high polyreactivity |
| QVQLVESGGGLVQAGGSLRLSCAASGRTFLLYAMGWYRQAPGKERELVAAITRGGRTNYADSVKGRFTISRDNAKNTVYLQMNSLKPEDTAVYYCAARYVERHTDYYYWGQGTQVTVSS | low polyreactivity |
| QVQLVESGGGLVQAGGSLRLSCAASGRTFLNYAMRWNRQAPVKERELVAAITDGDSTNYADSVKGRFTISRDNAKNTVYLQMNSLKPEDTAVYYCNAPSLAYRYYYWGQGTQVTVSS | high polyreactivity |
| QVQLVESGGGLVQAGGSLRLSCAASGRTFLPNAMGWYRQAPGKERELVAVITSGGSTNYADSVKGRFTISRDNAKNTVYLQMNSLKPEDTAVYYCASRRWSSSQGHWGKSAGYGYWGQGTQVTVSS | low polyreactivity |
| QVQLVESGGGLVQAGGSLRLSCAASGRTFLPNDMGWSIQAPGKERELVAAITDSGGDTYYADSVKGRFTISRDNAKNTVYLQMNSLKPEDTAVYYCAADYYYYGSYYPVEYWGQGTQVTVSS | high polyreactivity |
| QVQLVESGGGLVQAGGSLRLSCAASGRTFLRNAMGWYRQAPGKERELVAAISSGGGRTYYADSVKGRFTISRDNAKNTVYLQMNSLKPEDTAVYYCAALYQYLGGVYEGYYWGQGTQVTVSS | high polyreactivity |
| QVQLVESGGGLVQAGGSLRLSCAASGRTFLRNAMGWYRQAPGKERELVATISWGGGSTYYADSVKGRFTISRDNAKNTVYLQMNSLKPEDTAVYYCAKQRAWSGFDYWGQGTQVTVSS | high polyreactivity |
| QVQLVESGGGLVQAGGSLRLSCAASGRTFLRYAMGWYRQAPGKERELVAAISSRGGSTYYADSVKGRFTISRDNAKNTVYLQMNSLKPEDTAVYYCAADTYYTRYYYWGQGTQVTVSS | high polyreactivity |
| QVQLVESGGGLVQAGGSLRLSCAASGRTFLRYAMGWYRQAPGKERELVAAISSRGGSTYYADSVKGRFTISRDNAKNTVYLQMNSLKPEDTAVYYCAARFLHYYPTRGYTYDYWGQGTQVTVSS | high polyreactivity |
| QVQLVESGGGLVQAGGSLRLSCAASGRTFLRYAMGWYRQAPGKERELVAAITYGGRTNYADSVKGRFTISRDNAKNTVYLQMNSLKPEDTAVYYCAADRTYYYGLRVDYWGQGTQVTVSS | high polyreactivity |
| QVQLVESGGGLVQAGGSLRLSCAASGRTFLTYVMGWYRQAPWKERELVAAITRGGRTNYADSVKGRFTISRDNAKNTVYLQMNSLKPEDTAVYYCARDDTPRYDYWGQGTQVTVSS | low polyreactivity |
| QVQLVESGGGLVQAGGSLRLSCAASGRTFLVNAMGRYREAPGKVREFVAAITSRSGRTNYADSVKGRFTISRDNAKNTLYLQMNRLQPEDTAVYYCNAEGYTVKYWYSRYDYWGQGTQVTVSS | high polyreactivity |
| QVQLVESGGGLVQAGGSLRLSCAASGRTFLVYALGWYRQAPGKERELVAGITSGGGTYYADSVKGRFTISRDNAMNTVYLQINSLKPEETAVYYCAKYRWYGVYWGQVTQVTVSS | low polyreactivity |

| Sequence | polyreactivity (PSR sort gate) |
| --- | --- |
| QVQLVESGGGLVQAGGSLRLSCAASGRTFLWNAMGWYRQAPGKERELVAAISISGGNTNYADSVKGRFTISRDNAKNTVYLQINSLKPEDTAVYYCNADPRAEPGDWSYEMDYWGQGTQVTVSS | low polyreactivity |
| QVQLVESGGGLVQAGGSLRLSCAASGRTFLWYAMGWYRQAPGKEREFVAAITSSGGDTYYADSVKGRFTISRDNAKNTVYLQMNSLKPADTAVYYCAARTRKWFDYAIHYYWGQGTQVTVSS | low polyreactivity |
| QVQLVESGGGLVQAGGSLRLSCAASGRTFLYNAMGWYRQAPGKERELVAAISWSGGSTYYADSVKGRFTISRDNAKNTVYLQMNSLKPEDTAVYYCAAYWVWPGRYWYDYWGQGTQVTVSS | high polyreactivity |
| QVQLVESGGGLVQAGGSLRLSCAASGRTFLYNAMGWYRQAPGKERELVASLTRRGGTTYYADSVKGRFTISRDFAKNNVYFQMISLKPEVTAVYYCNAQPGISYYYYGHWYGYWGQGTQVTVSS | high polyreactivity |
| QVQLVESGGGLVQAGGSLRLSCAASGRTFLYNAMGWYSQATWKERELVASITRRGGTTYYADSVKGRFTISRDNAKNTVYLQMNSLKPEDTAVYYCNAQPGISYYYYGHWYGYWGQGTQVTVSS | high polyreactivity |
| QVQLVESGGGLVQAGGSLRLSCAASGRTFLYYAMGWYRQAPGKERELVAAISSGGRTNYADSVNGRFTISRDNAKNTVYLQMNSRKPEDTAVYYCAVRRGAFSTYPGYNYWGQGTQVTVSS | high polyreactivity |
| QVQLVESGGGLVQAGGSLRLSCAASGRTFNFNVMGWYRQAPGKESQLVAAISKSTGSTFYADSVKGRFTISRDNAKNTVYLQMNSLKPEDTAVYYCNAVRCYGSGRGYGYCGQGTQVTVSS | high polyreactivity |
| QVQLVESGGGLVQAGGSLRLSCAASGRTFNIYAMGWYRQAPGKERELVAAITWRSGSTYYADSVKGRFTISRDNAKNTVYLQMNSLKPEDTAVYYCAAEQWSSVPEFDYWGQGSQVTVSS | high polyreactivity |
| QVQLVESGGGLVQAGGSLRLSCAASGRTFNRYAMGWYRQAPGKERELVAAINWSGGSTYYADSVKARFTISRDIAKTTVYLPMNSLKPEDTAVYYCAADVWGWGLRPYDYWGQGTQVTVSS | low polyreactivity |
| QVQLVESGGGLVQAGGSLRLSCAASGRTFNRYGMGWYRQAPGKERELVASITSGGSTNYADSVKGRFTISRDNAKNSVYLQMNSLKPEDTAVYYCAKRSIGRYPRTYDYWGQGTQVTVSS | low polyreactivity |
| QVQLVESGGGLVQAGGSLRLSCAASGRTFNTNAMGWYRQAPGKERELVAAISGSGVRTYYADSVKGRFTISRDNAKNTVYLQMNSLKPEDTAVYYCAARGQGGPYNYWGQGTQVTVSS | high polyreactivity |
| QVQLVESGGGLVQAGGSLRLSCAASGRTFNYNAMGWYRQAPGTERELVAAINYNGGSTYYADSVKGRFTISRDNAKNTVYLQMNSLKPEDTAVYYCAADQSTVLDVGSWGQGTQVTVSS | low polyreactivity |
| QVQLVESGGGLVQAGGSLRLSCAASGRTFNYYAMGWYRQAPGKERELVAAISSGGSTDYADSVKGRFTISRDNAKNTVYLQMNSMKPEDTAVYYCNAESYPGWAYFAYDYQFDYWGQGTQVTVSS | low polyreactivity |
| QVQLVESGGGLVQAGGSLRLSCAASGRTFNYYVMGWFRQAPGKERELVATINWSGGSTYYADSVKGRFTISRDNAKNTVYLQMNSLKPEDTAVYYCAARWFYHRNHNRNYWGQGTQVTVSS | high polyreactivity |
| QVQLVESGGGLVQAGGSLRLSCAASGRTFPANTMGWYRPAPGKERELVAAISSRGGSTYYADSVKGRFTISRDNAKKTVYLQMNSLKPEDTAVYYCNAYLYFPRYDYWGQGTQVTVSS | high polyreactivity |
| QVQLVESGGGLVQAGGSLRLSCAASGRTFPAYAMGWYRQAPGKERELVARISYSGGNTYYADSVKGRFTISRDNAKNTVYLQMNSLKPEDTAVYYCAATRSHYPYRSGGDYWGQGTQVTVSS | low polyreactivity |
| QVQLVESGGGLVQAGGSLRLSCAASGRTFPFYAMGWYRQAPGKERELVASISRSTGRTYYADSVKGRFTISRDNAKNTVYLQMNSLKPEDTAVYYCAKSGGSSQYWYGYWGQGTQVTVSS | high polyreactivity |
| QVQLVESGGGLVQAGGSLRLSCAASGRTFPFYAMGWYRQAPVKEREFVAAITASGDSTYYADSVKGRFTISRDNAKYTVYLQMNSLKPEDTAVYYCAADLPVWYVTRYDYWGQGTQVTVSS | low polyreactivity |
| QVQLVESGGGLVQAGGSLRLSCAASGRTFPGNAMGGDKQAPGKERELVASINGRTTRTYYADSVKGRFTISRDNAKNTVYLQMTSLKPEDTAVYYCAADPPGYVYGKRYYWGQGTQVTVSS | high polyreactivity |
| QVQLVESGGGLVQAGGSLRLSCAASGRTFPGNAMGWYRQAPGKERELVAAINSGGSTYYADSVKGRFTISRDNAKNTVYLQMNSLKPEDTAVYYSAAYFGHYWRYYYWGQGTQVNVSS | high polyreactivity |
| QVQLVESGGGLVQAGGSLRLSCAASGRTFPGYAMGWYRQAPGKARELVAGISYRGGSTYYADSVKGRFTISRDNAKNTVYLQLNSLKPEDTAVYYCARDYSRHKGDYWGQGTQVTVSS | low polyreactivity |
